This sample holds only a part of the variants without activity.
Key:
biotinyl-Val-oxazolone = assay: self-aminoacylation, catalytic enhancement (BVO) (fold over background); higher = more active; k-Seq, kA / k0A0; sequences stand for … in GGGAAUGGAUCCACAUCUACGAAUUC…UUCACUGCAGACUUGACGAAGCUG
Procedure, shortened: (§1)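 The uncatalyzed rate is the low-activity peak of a bimodal Gaussian fit, and catalytic enhancement is median kA divided by it. The kA values came from pseudo-first-order fits, with 1000 bootstraps, of per-sequence fraction reacted measured by streptavidin capture, triplicate qPCR and Illumina sequencing. Mutagenized RNA pools with a 21-nt variable region (0.43 μM) were reacted with each biotinyl-aminoacyl-oxazolone at 2–1250 μM in 50 μL HEPES/NaCl/KCl/MgCl2/CaCl2 buffer with 5% acetonitrile, pH 6.9–7.0, for 90 minutes at room temperature.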

biotinyl-Leu-oxazolone = assay: self-aminoacylation, catalytic enhancement (BLO) (fold over background); higher = more active; k-Seq, kA / k0A0; sequences stand for … in GGGAAUGGAUCCACAUCUACGAAUUC…UUCACUGCAGACUUGACGAAGCUG
Procedure, shortened: as §1

biotinyl-Phe-oxazolone = assay: self-aminoacylation, catalytic enhancement (BFO) (fold over background); higher = more active; k-Seq, kA / k0A0; sequences stand for … in GGGAAUGGAUCCACAUCUACGAAUUC…UUCACUGCAGACUUGACGAAGCUG
Procedure, shortened: as §1

biotinyl-Trp-oxazolone = assay: self-aminoacylation, catalytic enhancement (BWO) (fold over background); higher = more active; k-Seq, kA / k0A0; sequences stand for … in GGGAAUGGAUCCACAUCUACGAAUUC…UUCACUGCAGACUUGACGAAGCUG
Procedure, shortened: as §1

biotinyl-Met-oxazolone = assay: self-aminoacylation, catalytic enhancement (BMO) (fold over background); higher = more active; k-Seq, kA / k0A0; sequences stand for … in GGGAAUGGAUCCACAUCUACGAAUUC…UUCACUGCAGACUUGACGAAGCUG
Procedure, shortened: as §1

biotinyl-Ile-oxazolone = assay: self-aminoacylation, catalytic enhancement (BIO) (fold over background); higher = more active; k-Seq, kA / k0A0; sequences stand for … in GGGAAUGGAUCCACAUCUACGAAUUC…UUCACUGCAGACUUGACGAAGCUG
Procedure, shortened: as §1

| Sequence | self-aminoacylation (biotinyl-Val-oxazolone) | self-aminoacylation (biotinyl-Leu-oxazolone) | self-aminoacylation (biotinyl-Phe-oxazolone) | self-aminoacylation (biotinyl-Trp-oxazolone) | self-aminoacylation (biotinyl-Met-oxazolone) | self-aminoacylation (biotinyl-Ile-oxazolone) |
| --- | --- | --- | --- | --- | --- | --- |
| GUUCACCUAGGUCAUCGCGUG [Fam2.2 aminoacylation ribozyme variant] | 6.96 | 15 | 96.1 | 10.6 | 10.5 | 6.72 |
| CUACUUCAAGCAAUCGGUCAG [Fam1A.1 aminoacylation ribozyme variant] | 0.894 | 0.797 | 2.28 | 1.3 | 1.09 | 0.86 |
| AUUCACCUAGGUGAUCUGGUG [Fam2.2 aminoacylation ribozyme variant] | 1.47 | 2.36 | 7.54 | 1.84 | 1.99 | 1.34 |
| UUUCAACUAGGUCAUCGGGUG [Fam2.2 aminoacylation ribozyme variant] | 3.67 | 5.6 | 35.7 | 5.22 | 5.1 | 3.58 |
| AUAACCCUGGUGAUCGAGUGA [Fam2.1 aminoacylation ribozyme variant] | 3.03 | 6.37 | 36.3 | 7.08 | 6.53 | 3.03 |
| CCACACUUCAAGCAAUCAUUC [Fam1B.1 aminoacylation ribozyme variant] | 0.671 | 0.56 | 1.64 | 0.686 | 0.539 | 0.649 |
| CUACUUCAAACAAUCGCUCUC [Fam1A.1 aminoacylation ribozyme variant] | 1.02 | 0.515 | 2.18 | 1.2 | 0.384 | 0.621 |
| AUACACCAAGGUCAUCGGGUG [Fam2.2 aminoacylation ribozyme variant] | 3.5 | 6.13 | 42.2 | 6.72 | 4.18 | 4.48 |
| AUUCACCUAGGUCAUCUGGUC [Fam2.2 aminoacylation ribozyme variant] | 0.686 | 0.596 | 0.411 | 0.378 | 0.623 | 0.522 |
| CCACACUUCAAGCAUGCGGUC [Fam1B.1 aminoacylation ribozyme variant] | 2.27 | 1.62 | 0.814 | 2.22 | 1.57 | 1.41 |
| CUACUUCAAACAAUUAGUCUG [Fam1A.1 aminoacylation ribozyme variant] | 0.901 | 0.712 | 1.04 | 0.684 | 0.662 | 0.891 |
| AUGUUUUCUAAUAGUCGCAAG [Fam3.1 aminoacylation ribozyme variant] | 1.2 | 1.52 | 2.58 | 2.2 | 1.62 | 1.62 |
| AUUUACCUAGGGCAUCGGGUG [Fam2.2 aminoacylation ribozyme variant] | 3.12 | 3.47 | 16.7 | 3.7 | 3.65 | 2.92 |
| AAACUUGCUAAUAGUCGCAAG [Fam3.1 aminoacylation ribozyme variant] | 1.97 | 1.29 | 2.21 | 4.6 | 1.76 | 2.62 |
| AUUACCCUGGUCAUAGUGUGA [Fam2.1 aminoacylation ribozyme variant] | 0.977 | 0.978 | 0.987 | 0.799 | 1.12 | 0.955 |
| AUUCACCUAGAUCACCGGGUG [Fam2.2 aminoacylation ribozyme variant] | 2.55 | 3.69 | 11.5 | 2.86 | 2.76 | 2.42 |
| AUUCACCUAGGUAAUGGGGUG [Fam2.2 aminoacylation ribozyme variant] | 2.58 | 6.27 | 27.6 | 4.53 | 5.17 | 2.4 |
| CUACUUCAAAGAAUCGGUCUA [Fam1A.1 aminoacylation ribozyme variant] | 0.665 | 0.737 | 1.2 | 0.542 | 0.608 | 0.748 |
| AAGUUUGCUAAUAUUCUCAAG [Fam3.1 aminoacylation ribozyme variant] | 1.18 | 1.15 | 1.04 | 1.48 | 1.17 | 1.1 |
| AUUAACCUAGGUAAUCGGGUG [Fam2.2 aminoacylation ribozyme variant] | 1.66 | 2.3 | 12.5 | 2.42 | 2.62 | 1.78 |
| GUUCGCCUAGGUCAUCGGGUG [Fam2.2 aminoacylation ribozyme variant] | 10.2 | 22.8 | 121 | 14.9 | 18.9 | 9.85 |
| AUUCACCUAGGUCGACGGGUG [Fam2.2 aminoacylation ribozyme variant] | 1.87 | 3.27 | 13.3 | 2.19 | 2.93 | 1.88 |
| ACUACCCUGAUCAUCGAGUGA [Fam2.1 aminoacylation ribozyme variant] | 3.38 | 5.88 | 6.61 | 7.58 | 5.52 | 3.87 |
| ACACACUUCAAGAAAUCGGUC [Fam1B.1 aminoacylation ribozyme variant] | 1.27 | 1.32 | 5.64 | 4.86 | 1.41 | 1.24 |
| CUACUACAAAGAAUCGGUCUG [Fam1A.1 aminoacylation ribozyme variant] | 0.54 | 0.775 | 0.547 | 0.8 | 0.788 | 0.781 |
| CCACUUCAAACAAUCGGCCUG [Fam1A.1 aminoacylation ribozyme variant] | 4.05 | 7.46 | 425 | 145 | 4.68 | 4.3 |

| Sequence | self-aminoacylation (biotinyl-Val-oxazolone) | self-aminoacylation (biotinyl-Leu-oxazolone) | self-aminoacylation (biotinyl-Phe-oxazolone) | self-aminoacylation (biotinyl-Trp-oxazolone) | self-aminoacylation (biotinyl-Met-oxazolone) | self-aminoacylation (biotinyl-Ile-oxazolone) |
| --- | --- | --- | --- | --- | --- | --- |
| CUACUUCAAACAUUCGUUCUG [Fam1A.1 aminoacylation ribozyme variant] | 0.706 | 0.659 | 0.513 | 0.504 | 0.669 | 0.713 |
| AUGAACCUAGGUCAUCGGGUG [Fam2.2 aminoacylation ribozyme variant] | 4.28 | 7.54 | 24.6 | 6.44 | 5.97 | 4.29 |
| AUUCACCGAGGUCAUCGGGUU [Fam2.2 aminoacylation ribozyme variant] | 2.84 | 3.15 | 9.59 | 2.7 | 2.61 | 2.26 |
| AUUCAACUAGGUCAUCGGGUU [Fam2.2 aminoacylation ribozyme variant] | 1.66 | 1.95 | 4.65 | 1.8 | 1.91 | 1.5 |
| AUUGACCUAGGUCAACGGGUG [Fam2.2 aminoacylation ribozyme variant] | 2.31 | 2.43 | 8.47 | 2.72 | 2.6 | 2.46 |
| GUUCUUCAAACAAUCGGUCUG [Fam1A.1 aminoacylation ribozyme variant] | 0.824 | 0.983 | 3.63 | 2.39 | 1 | 0.863 |
| CCACACUUCGAGCAAUCGGCC [Fam1B.1 aminoacylation ribozyme variant] | 2.77 | 1.94 | 7.13 | 2.11 | 1.61 | 1.64 |
| UCACACUUCAAGCAAACGGUC [Fam1B.1 aminoacylation ribozyme variant] | 0.792 | 0.506 | 0.679 | 0.586 | 0.682 | 0.639 |
| AAGUUUGAUAAUGGUCGCAAG [Fam3.1 aminoacylation ribozyme variant] | 0.644 | 0.895 | 1.47 | 0.581 | 0.785 | 0.891 |
| GUACUUCAAACAAUUGGUCUG [Fam1A.1 aminoacylation ribozyme variant] | 1.16 | 1.34 | 1.82 | 1.75 | 1.18 | 1.36 |
| AUUCACCUAUGUCAUCGGGUG [Fam2.2 aminoacylation ribozyme variant] | 3.48 | 7.41 | 36.7 | 5.45 | 5.41 | 3.61 |
| AUUCACCUAAGUCAUCGGGGG [Fam2.2 aminoacylation ribozyme variant] | 1.76 | 2.5 | 10.9 | 2.27 | 2.48 | 1.92 |
| AUUCAAUUAGGUCAUCGGGUG [Fam2.2 aminoacylation ribozyme variant] | 3.44 | 7.25 | 42.1 | 5.33 | 6 | 3.56 |
| AAGUUUGCUAAUAGUUGGAAG [Fam3.1 aminoacylation ribozyme variant] | 1.25 | 1.21 | 1.47 | 0.896 | 1.38 | 1.29 |
| AAAUGUGCUAAUAGUCGCAAG [Fam3.1 aminoacylation ribozyme variant] | 1.46 | 1.53 | 2.84 | 1.48 | 2.16 | 2.12 |
| AUUACCCUGGUCUUCUAGUGA [Fam2.1 aminoacylation ribozyme variant] | 3.54 | 5.65 | 23.6 | 7.45 | 5.28 | 2.92 |
| GUGCACCUAGGUCAUCGGGUG [Fam2.2 aminoacylation ribozyme variant] | 4.64 | 3.9 | 26.8 | 6.04 | 3.85 | 3.96 |
| CUACUUCAAAUAAUCGGGCUG [Fam1A.1 aminoacylation ribozyme variant] | 0.85 | 0.965 | 4.76 | 3.35 | 0.607 | 0.911 |
| UCUCACCUAGGUCAUCGGGUG [Fam2.2 aminoacylation ribozyme variant] | 3.09 | 3.81 | 16.1 | 3.84 | 3.73 | 2.33 |
| CUUCACCUAGGUCUUCGGGUG [Fam2.2 aminoacylation ribozyme variant] | 5.98 | 6.81 | 34.1 | 6.37 | 6.17 | 4.13 |
| AUUCACCUAGGUUCUCGGGUG [Fam2.2 aminoacylation ribozyme variant] | 2.68 | 3.18 | 20.4 | 2.44 | 2.88 | 2.63 |
| AUUCAGAUAGGUCAUCGGGUG [Fam2.2 aminoacylation ribozyme variant] | 3.77 | 7.3 | 49.6 | 5.8 | 6.75 | 4.19 |
| AUUACCCUGGUCACUGAGUGA [Fam2.1 aminoacylation ribozyme variant] | 2.75 | 3.91 | 10.5 | 4.62 | 3.91 | 2.75 |
| ACUCAUCUAGGUCAUCGGGUG [Fam2.2 aminoacylation ribozyme variant] | 5.04 | 6.97 | 42.4 | 7.26 | 6.28 | 5.55 |
| AUUACCCUUGCCAUCGAGUGA [Fam2.1 aminoacylation ribozyme variant] | 3.18 | 5.63 | 35.2 | 7.05 | 6.18 | 3.09 |
